Source: article PMC9482650, “Quantitative fragmentomics allow affinity mapping of interactomes” (Nature Communications, 2022)
Numbering of substitutions follows the chain as printed.

T1: ARHGAP21, Q5T5U3
T1 sequence (Q5T5U3 45-169, limits assumed, looked up): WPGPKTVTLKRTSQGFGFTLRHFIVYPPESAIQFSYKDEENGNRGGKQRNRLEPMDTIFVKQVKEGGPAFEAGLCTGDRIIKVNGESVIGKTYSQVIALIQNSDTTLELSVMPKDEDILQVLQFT

T2: LIN7C, Q9NUP9
T2 sequence (Q9NUP9 88-185, limits assumed, looked up): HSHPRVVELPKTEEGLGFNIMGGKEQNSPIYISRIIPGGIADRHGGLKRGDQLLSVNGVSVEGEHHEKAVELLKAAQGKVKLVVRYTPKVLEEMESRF

T3: NHERF3_4, Q5T2W1
T3 sequence (Q5T2W1 373-468, limits assumed, looked up): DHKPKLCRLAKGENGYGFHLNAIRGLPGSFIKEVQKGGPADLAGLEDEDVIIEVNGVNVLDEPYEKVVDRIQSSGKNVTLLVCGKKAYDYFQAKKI

T4: PDZRN3_1, Q9UPQ7
T4 sequence (Q9UPQ7 244-349, limits assumed, looked up): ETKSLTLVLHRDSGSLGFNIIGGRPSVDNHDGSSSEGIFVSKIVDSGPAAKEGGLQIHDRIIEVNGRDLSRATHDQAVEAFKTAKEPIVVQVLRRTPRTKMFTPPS

T5: PDZD2_2, O15018
T5 sequence (O15018 329-429, limits assumed, looked up): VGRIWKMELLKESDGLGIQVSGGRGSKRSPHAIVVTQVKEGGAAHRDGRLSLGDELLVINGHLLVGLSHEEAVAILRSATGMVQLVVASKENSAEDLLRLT

T6: LIN7B, Q9HAP6
T6 sequence (Q9HAP6 88-185, limits assumed, looked up): T2 sequence (Q9NUP9 88-185, limits assumed, looked up) with S2A, E13D, I35V, I40V, H65Q, K79S, K89R, S96A

T7: LNX2_3, Q8N448
T7 sequence (Q8N448 463-564, limits assumed, looked up): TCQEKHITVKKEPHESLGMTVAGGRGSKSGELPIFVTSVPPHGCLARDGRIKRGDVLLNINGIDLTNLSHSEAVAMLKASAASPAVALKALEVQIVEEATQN

T8: HTRA4, P83105
T8 sequence (P83105 378-476, limits assumed, looked up): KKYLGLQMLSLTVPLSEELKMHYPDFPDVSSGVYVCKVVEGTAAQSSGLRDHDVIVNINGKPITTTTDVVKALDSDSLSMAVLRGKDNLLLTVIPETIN

T9: SNTG2, Q9NY99
T9 sequence (Q9NY99 68-166, limits assumed, looked up): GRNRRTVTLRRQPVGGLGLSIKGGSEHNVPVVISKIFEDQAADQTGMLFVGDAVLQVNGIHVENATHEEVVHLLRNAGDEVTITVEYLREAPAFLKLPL

T10: APBA2_2, Q99767
T10 sequence (Q99767 654-744, limits assumed, looked up): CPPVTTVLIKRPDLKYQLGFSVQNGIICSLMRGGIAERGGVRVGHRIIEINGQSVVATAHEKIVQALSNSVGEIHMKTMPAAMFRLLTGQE

T11: GRIP1_4, Q9Y3R0
T11 sequence (Q9Y3R0 467-571, limits assumed, looked up): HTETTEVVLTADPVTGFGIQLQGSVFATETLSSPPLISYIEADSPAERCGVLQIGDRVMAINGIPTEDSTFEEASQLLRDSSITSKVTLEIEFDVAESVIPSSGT

T12: SNTB1, Q13884
T12 sequence (Q13884 107-205, limits assumed, looked up): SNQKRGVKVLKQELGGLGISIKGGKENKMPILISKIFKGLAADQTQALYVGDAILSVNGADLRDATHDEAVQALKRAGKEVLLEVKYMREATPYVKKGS

B1: IQSEC2, Q5JU85 (peptide)
chain: AKPSRISTVV

These binders were tested against DLG4_3, P78352 (assay: holdup assay). Details: plain residues with an end cap or a label only (N-terminal biotin on a linker: ado-ado).
DLG4_3, P78352, sequence (P78352 306-403): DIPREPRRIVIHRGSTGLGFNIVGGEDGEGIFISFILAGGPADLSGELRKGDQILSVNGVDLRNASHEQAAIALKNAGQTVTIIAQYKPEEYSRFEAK
Set-up: key: below the threshold = too weak to quantify, mostly under pKd 3.1 to 4

Row | Binder | pKd
1 | B1 | 4.18

The binders below were run against T1, ARHGAP21, Q5T5U3 (assay: holdup assay). Details: plain residues with an end cap or a label only (N-terminal biotin on a linker: ado-ado).
Set-up: key: below the threshold = too weak to quantify, mostly under pKd 3.1 to 4

Row | Binder | pKd
2 | B1 | below the threshold

The binders below were run against Inadl_3, Q8NI35 (assay: holdup assay). Details: plain residues with an end cap or a label only (N-terminal biotin on a linker: ado-ado).
Inadl_3, Q8NI35, sequence (Q8NI35 359-469): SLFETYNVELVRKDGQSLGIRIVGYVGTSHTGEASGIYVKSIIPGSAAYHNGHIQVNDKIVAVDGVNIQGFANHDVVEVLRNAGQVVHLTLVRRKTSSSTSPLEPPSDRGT
Set-up: key: below the threshold = too weak to quantify, mostly under pKd 3.1 to 4

Row | Binder | pKd
3 | B1 | 3.73

What follows are binders tested against LNX1_2, Q8TBB1 (assay: holdup assay). Details: plain residues with an end cap or a label only (N-terminal biotin on a linker: ado-ado).
LNX1_2, Q8TBB1, sequence (Q8TBB1 371-470): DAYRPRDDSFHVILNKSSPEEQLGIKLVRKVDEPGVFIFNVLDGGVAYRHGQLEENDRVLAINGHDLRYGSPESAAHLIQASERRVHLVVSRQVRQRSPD
Set-up: key: below the threshold = too weak to quantify, mostly under pKd 3.1 to 4

Row | Binder | pKd
4 | B1 | 3.52

What follows are binders tested against Inadl_6, Q8NI35 (assay: holdup assay). Details: plain residues with an end cap or a label only (N-terminal biotin on a linker: ado-ado).
Inadl_6, Q8NI35, sequence (Q8NI35 1058-1167): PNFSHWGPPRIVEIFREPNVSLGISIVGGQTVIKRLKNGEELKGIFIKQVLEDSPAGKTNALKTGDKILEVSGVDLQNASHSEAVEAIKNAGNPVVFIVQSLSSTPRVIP
Set-up: key: below the threshold = too weak to quantify, mostly under pKd 3.1 to 4

Row | Binder | pKd
5 | B1 | below the threshold

What follows are binders tested against T2, LIN7C, Q9NUP9 (assay: holdup assay). Details: plain residues with an end cap or a label only (N-terminal biotin on a linker: ado-ado).
Set-up: key: below the threshold = too weak to quantify, mostly under pKd 3.1 to 4

Row | Binder | pKd
6 | B1 | below the threshold

The binders below were run against T3, NHERF3_4, Q5T2W1 (assay: holdup assay). Details: plain residues with an end cap or a label only (N-terminal biotin on a linker: ado-ado).
Set-up: key: below the threshold = too weak to quantify, mostly under pKd 3.1 to 4

Row | Binder | pKd
7 | B1 | 3.73

What follows are binders tested against T4, PDZRN3_1, Q9UPQ7 (assay: holdup assay). Details: plain residues with an end cap or a label only (N-terminal biotin on a linker: ado-ado).
Set-up: key: below the threshold = too weak to quantify, mostly under pKd 3.1 to 4

Row | Binder | pKd
8 | B1 | below the threshold

Each binder was assayed against T5, PDZD2_2, O15018 (assay: holdup assay). Details: plain residues with an end cap or a label only (N-terminal biotin on a linker: ado-ado).
Set-up: key: below the threshold = too weak to quantify, mostly under pKd 3.1 to 4

Row | Binder | pKd
9 | B1 | 4.29

The binders below were run against T6, LIN7B, Q9HAP6 (assay: holdup assay). Details: plain residues with an end cap or a label only (N-terminal biotin on a linker: ado-ado).
Set-up: key: below the threshold = too weak to quantify, mostly under pKd 3.1 to 4

Row | Binder | pKd
10 | B1 | 3.73

The binders below were run against T7, LNX2_3, Q8N448 (assay: holdup assay). Details: plain residues with an end cap or a label only (N-terminal biotin on a linker: ado-ado).
Set-up: key: below the threshold = too weak to quantify, mostly under pKd 3.1 to 4

Row | Binder | pKd
11 | B1 | below the threshold

These binders were tested against T8, HTRA4, P83105 (assay: holdup assay). Details: plain residues with an end cap or a label only (N-terminal biotin on a linker: ado-ado).
Set-up: key: below the threshold = too weak to quantify, mostly under pKd 3.1 to 4

Row | Binder | pKd
12 | B1 | below the threshold

The binders below were run against T9, SNTG2, Q9NY99 (assay: holdup assay). Details: plain residues with an end cap or a label only (N-terminal biotin on a linker: ado-ado).
Set-up: key: below the threshold = too weak to quantify, mostly under pKd 3.1 to 4

Row | Binder | pKd
13 | B1 | below the threshold

These binders were tested against SCRIB_2, Q14160 (assay: holdup assay). Details: plain residues with an end cap or a label only (N-terminal biotin on a linker: ado-ado).
SCRIB_2, Q14160, sequence (Q14160 857-960): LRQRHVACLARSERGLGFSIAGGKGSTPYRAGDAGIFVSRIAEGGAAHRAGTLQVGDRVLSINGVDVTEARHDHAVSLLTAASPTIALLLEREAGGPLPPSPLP
Set-up: key: below the threshold = too weak to quantify, mostly under pKd 3.1 to 4

Row | Binder | pKd
14 | B1 | below the threshold

What follows are binders tested against DLG1_3, Q12959 (assay: holdup assay). Details: plain residues with an end cap or a label only (N-terminal biotin on a linker: ado-ado).
DLG1_3, Q12959, sequence (Q12959 457-571): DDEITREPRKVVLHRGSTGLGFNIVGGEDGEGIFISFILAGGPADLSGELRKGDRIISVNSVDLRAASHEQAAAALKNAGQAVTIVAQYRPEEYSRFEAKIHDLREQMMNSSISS
Set-up: key: below the threshold = too weak to quantify, mostly under pKd 3.1 to 4

Row | Binder | pKd
15 | B1 | below the threshold

What follows are binders tested against LNX1_3, Q8TBB1 (assay: holdup assay). Details: plain residues with an end cap or a label only (N-terminal biotin on a linker: ado-ado).
LNX1_3, Q8TBB1, sequence (Q8TBB1 500-596): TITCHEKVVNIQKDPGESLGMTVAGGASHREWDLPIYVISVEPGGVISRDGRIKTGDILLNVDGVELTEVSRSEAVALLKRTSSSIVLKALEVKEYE
Set-up: key: below the threshold = too weak to quantify, mostly under pKd 3.1 to 4

Row | Binder | pKd
16 | B1 | below the threshold

What follows are binders tested against MAGI2_4, Q86UL8 (assay: holdup assay). Details: plain residues with an end cap or a label only (N-terminal biotin on a linker: ado-ado).
MAGI2_4, Q86UL8, sequence (Q86UL8 772-865): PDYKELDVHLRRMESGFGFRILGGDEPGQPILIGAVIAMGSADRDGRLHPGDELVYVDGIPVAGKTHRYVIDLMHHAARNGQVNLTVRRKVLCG
Set-up: key: below the threshold = too weak to quantify, mostly under pKd 3.1 to 4

Row | Binder | pKd
17 | B1 | 4.68

Each binder was assayed against T10, APBA2_2, Q99767 (assay: holdup assay). Details: plain residues with an end cap or a label only (N-terminal biotin on a linker: ado-ado).
Set-up: key: below the threshold = too weak to quantify, mostly under pKd 3.1 to 4

Row | Binder | pKd
18 | B1 | below the threshold

These binders were tested against T11, GRIP1_4, Q9Y3R0 (assay: holdup assay). Details: plain residues with an end cap or a label only (N-terminal biotin on a linker: ado-ado).
Set-up: key: below the threshold = too weak to quantify, mostly under pKd 3.1 to 4

Row | Binder | pKd
19 | B1 | below the threshold

What follows are binders tested against T12, SNTB1, Q13884 (assay: holdup assay). Details: plain residues with an end cap or a label only (N-terminal biotin on a linker: ado-ado).
Set-up: key: below the threshold = too weak to quantify, mostly under pKd 3.1 to 4

Row | Binder | pKd
20 | B1 | 4.16

What follows are binders tested against TJP1_3, Q07157 (assay: holdup assay). Details: plain residues with an end cap or a label only (N-terminal biotin on a linker: ado-ado).
TJP1_3, Q07157, sequence (Q07157 416-512): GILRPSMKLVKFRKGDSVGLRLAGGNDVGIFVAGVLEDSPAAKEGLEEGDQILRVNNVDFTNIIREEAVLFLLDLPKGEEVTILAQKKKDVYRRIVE
Set-up: key: below the threshold = too weak to quantify, mostly under pKd 3.1 to 4

Row | Binder | pKd
21 | B1 | below the threshold

Each binder was assayed against FRMPD2_1, Q68DX3 (assay: holdup assay). Details: plain residues with an end cap or a label only (N-terminal biotin on a linker: ado-ado).
FRMPD2_1, Q68DX3, sequence (Q68DX3 770-861): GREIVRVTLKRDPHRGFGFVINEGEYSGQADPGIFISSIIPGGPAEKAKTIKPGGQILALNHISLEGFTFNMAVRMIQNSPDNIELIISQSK
Set-up: key: below the threshold = too weak to quantify, mostly under pKd 3.1 to 4

Row | Binder | pKd
22 | B1 | 3.53

Each binder was assayed against DLG1_2, Q12959 (assay: holdup assay). Details: plain residues with an end cap or a label only (N-terminal biotin on a linker: ado-ado).
DLG1_2, Q12959, sequence (Q12959 314-412): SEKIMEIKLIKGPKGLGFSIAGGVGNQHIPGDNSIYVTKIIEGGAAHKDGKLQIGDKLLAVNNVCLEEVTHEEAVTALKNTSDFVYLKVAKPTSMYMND
Set-up: key: below the threshold = too weak to quantify, mostly under pKd 3.1 to 4

Row | Binder | pKd
23 | B1 | 5.52

What follows are binders tested against LAP2, Q96RT1 (assay: holdup assay). Details: plain residues with an end cap or a label only (N-terminal biotin on a linker: ado-ado).
LAP2, Q96RT1, sequence (Q96RT1 other isoform, or with tags, fused parts or gaps): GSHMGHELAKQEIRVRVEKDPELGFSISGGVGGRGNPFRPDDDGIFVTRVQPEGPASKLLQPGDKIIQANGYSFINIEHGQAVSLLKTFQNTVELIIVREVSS
Set-up: key: below the threshold = too weak to quantify, mostly under pKd 3.1 to 4

Row | Binder | pKd
24 | B1 | below the threshold

These binders were tested against IL16_4, Q14005 (assay: holdup assay). Details: plain residues with an end cap or a label only (N-terminal biotin on a linker: ado-ado).
IL16_4, Q14005, sequence (Q14005 1229-1329): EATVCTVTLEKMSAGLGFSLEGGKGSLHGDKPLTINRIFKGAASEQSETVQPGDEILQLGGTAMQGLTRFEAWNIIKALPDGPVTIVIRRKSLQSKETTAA
Set-up: key: below the threshold = too weak to quantify, mostly under pKd 3.1 to 4

Row | Binder | pKd
25 | B1 | 3.51
